Results: PMC12177876, “Nanoflow Size Exclusion Chromatography–Native Mass Spectrometry of Intact Proteoforms and Protein Complexes” (Analytical Chemistry, 2025)

B1: catalase (enzyme, UniProt P00432 1-527, looked up)
chain: MADNRDPASDQMKHWKEQRAAQKPDVLTTGGGNPVGDKLNSLTVGPRGPLLVQDVVFTDEMAHFDRERIPERVVHAKGAGAFGYFEVTHDITRYSKAKVFEHIGKRTPIAVRFSTVAGESGSADTVRDPRGFAVKFYTEDGNWDLVGNNTPIFFIRDALLFPSFIHSQKRNPQTHLKDPDMVWDFWSLRPESLHQVSFLFSDRGIPDGHRHMNGYGSHTFKLVNANGEAVYCKFHYKTDQGIKNLSVEDAARLAHEDPDYGLRDLFNAIATGNYPSWTLYIQVMTFSEAEIFPFNPFDLTKVWPHGDYPLIPVGKLVLNRNPVNYFAEVEQLAFDPSNMPPGIEPSPDKMLQGRLFAYPDTHRHRLGPNYLQIPVNCPYRARVANYQRDGPMCMMDNQGGAPNYYPNSFSAPEHQPSALEHRTHFSGDVQRFNSANDDNVTQVRTFYLKVLNEEQRKRLCENIAGHLKDAQLFIQKKAVKNFSDVHPEYGSRIQALLDKYNEEKPKNAVHTYVQHGSHLSAREKANL
notes: Bovine liver catalase is surmised; the source is in the supplement
B2: alcohol dehydrogenase (enzyme, UniProt P00330 1-348, looked up)
chain: MSIPETQKGVIFYESHGKLEYKDIPVPKPKANELLINVKYSGVCHTDLHAWHGDWPLPVKLPLVGGHEGAGVVVGMGENVKGWKIGDYAGIKWLNGSCMACEYCELGNESNCPHADLSGYTHDGSFQQYATADAVQAAHIPQGTDLAQVAPILCAGITVYKALKSANLMAGHWVAISGAAGGLGSLAVQYAKAMGYRVLGIDGGEGKEELFRSIGGEVFIDFTKEKDIVGAVLKATDGGAHGVINVSVSEAAIEASTRYVRANGTTVLVGMPAGAKCCSDVFNQVVKSISIVGSYVGNRADTREALDFFARGLVKSPIKVVGLSTLPEIYEKMEKGQIVGRYVVDTSK
notes: The tetramer mass fits S. cerevisiae ADH1; this is surmised, the source is in the supplement; also called ADH

Molecular target: the molecule itself
Assay: SEC + native MS; nanoflow SEC-nMS of reference proteins: 50 nL of 1 mg mL^-1 protein injected, 200 um ID capillary SEC column, 0.5 uL min^-1, eluted with 200 mM AmAc; isCID varies by protein

| Protein | stoichiometry N |
| --- | --- |
| B1 | 4 |
| B2 | 4 |
